Like-named read-outs stand apart in the source and are kept apart here.

Common to all, as to settings: remark: other sources report otherwise
Assay [1] has as its target T1, recombinant soluble homotrimeric HA of A/Vietnam/1203/04 (H5N1) (Influenza A virus A/VietNam/1203/2004(H5N1)). In words: trimeric HA microarray, transfection supernatant set 1.
Assay [2] concerns the target T2, recombinant soluble homotrimeric HA of A/California/4/09 (H1N1) (Influenza A virus A/California/04/2009(H1N1)). The description is as above.
Assay [3] addresses T3, recombinant soluble homotrimeric HA of A/Egypt/3300-NAMRU3/08 (H5N1) (Influenza A virus A/Egypt/3300-NAMRU3/2008(H5N1)). Described as above.
Assay [4] concerns the target T4, recombinant soluble homotrimeric HA of A/Japan/305/57 (H2N2) (Influenza A virus A/Japan/305/1957(H2N2)). The assay is described as above.
Assay [5] addresses T5, recombinant soluble homotrimeric HA of A/Solomon Islands/3/06 (H1N1) (Influenza A virus A/Solomon Islands/3/2006(H1N1)). Described as above.
For assay [6], the target named is T6, recombinant soluble homotrimeric HA of A/Indonesia/5/05 (H5N1) (Influenza A virus A/Indonesia/5/2005(H5N1)). Described as above.
Assay [7] concerns the target T7, recombinant soluble homotrimeric HA of A/chicken/Vietnam/NCVD-016/08 (H5N1) (Influenza A virus A/chicken/Vietnam/NCVD-016/2008(H5N1)). The assay is described as above.
Assay [8] concerns the target T8, recombinant soluble homotrimeric HA of A/South Carolina/1/18 (H1N1) (Influenza A virus A/South Carolina/1/18 (H1N1)). The description is as above.
In assay [9] the target is T9, recombinant soluble homotrimeric HA of A/Netherlands/219/03 (H7N7) (Influenza A virus A/Netherlands/219/03(H7N7)). Described as above.
The target of assay [10] is T10, recombinant soluble homotrimeric HA of A/Anhui/1/05 (H5N1) (Influenza A virus A/Anhui/1/2005(H5N1)). The description is as above.
The target of assay [11] is T7, recombinant soluble homotrimeric HA of …. Kind of assay: HA microarray, control antibody.
Assay [12] concerns the target recombinant soluble homotrimeric HA of A/northern shoveler/California/HKWF115/07 (H6) (Influenza A virus A/northern shoveler/California/HKWF115/2007(H6N1)).
In assay [13] the target is T11, recombinant soluble homotrimeric HA of A/Hong Kong/1073/99 (H9N2) (Influenza A virus A/Hong Kong/1073/99 (H9N2)).
Assay [14] concerns the target recombinant soluble homotrimeric HA of A/Hong Kong/156/97 (H5N1) (Influenza A virus A/Hong Kong/156/97 (H5N1)).
In assay [15] the target is recombinant soluble homotrimeric HA of A/swine/Ontario/01911-2/99 (H4N6) (Influenza A virus A/Swine/Ontario/01911-2/99 (H4N6)).
Assay [16] has as its target T1, recombinant soluble homotrimeric HA of ….
For assay [17], the target named is recombinant soluble homotrimeric HA of A/duck/Yangzhou/02/05 (H8N4) (Influenza A virus A/duck/Yangzhou/02/2005(H8N4)).
Assay [18] has as its target T2, recombinant soluble homotrimeric HA of ….
Assay [19] has as its target T3, recombinant soluble homotrimeric HA of ….
Assay [20] concerns the target T4, recombinant soluble homotrimeric HA of ….
Assay [21] has as its target T5, recombinant soluble homotrimeric HA of ….
Assay [22] addresses T6, recombinant soluble homotrimeric HA of ….
Assay [23] has as its target T7, recombinant soluble homotrimeric HA of ….
Assay [24] addresses T8, recombinant soluble homotrimeric HA of ….
The target of assay [25] is T9, recombinant soluble homotrimeric HA of ….
The target in assay [26] is recombinant soluble homotrimeric HA of A/Wisconsin/67/05 (H3N2) (Influenza A virus A/Wisconsin/67/2005(H3N2)).
In assay [27] the target is T10, recombinant soluble homotrimeric HA of ….
For assay [28], the target named is T11, recombinant soluble homotrimeric HA of …. Kind of assay: trimeric HA microarray, transfection supernatant set 3.
Assay [29] addresses recombinant soluble homotrimeric HA of A/Hong Kong/2108/03 (H9N2) (Influenza A virus A/HK/2108/2003(H9N2)). Described as above.

B1: TCN-504 (3251_K17) (antibody, V domains shown)
VH: QVQLQESGPGLVKPSETLSLTCAVSGVSISNIDFYWGWIRQPPGKGLEWIGNIYYTGITFYNPSLSSRVAISIDTSKNQFSLTLTSVTAADTAMYYCARHYGDSEAINDAFDIWGQGTMLTVSS
VL: EIVMTQSPATLSVSPGERATLSCRASQSVGNSLAWYQQRPGQAPRLLIYGASTRATGIPPRFSGSGSGTEFTLTISSLQTEDFAVYYCQQYINWRPLSFGGGTKVEIK
In the case of B1, the Trimeric HA Binding: RLU is 1300 RLU in assay [1]; 18300 RLU in assay [2]; 16100 RLU in [3]; 15100 RLU in assay [4]; 29800 RLU in assay [5]; 16600 RLU in assay [6]. Moreover, the Trimeric HA Binding: RLU stood at 27800 RLU in assay [7]; 21500 RLU in assay [8]; 23800 RLU in assay [9]; 29000 RLU in assay [10]; 38500 RLU in assay [11].

B2: TCN-563 (5237_B21) (antibody, V domains shown)
VH: QVQLAQSGAEVKRPGSSVKVSCTASGGIFRKNAISWVRQAPGQGLEWMGGIIAVFNTANYAQKFQGRVKITADESGNTAYMELSSLRSDDTAVYYCASHPKYFYGSGSYPDFWGQGTLVTVSS
VL: QSALTQPRSVSGSPGQSVTISCTGSSSDVGASNSVSWYQQHPGKAPKLVIYDVTERPSGVPHRFSGSKSGNTASLTVSGLQPEDEADYFCCAYGGKYLVVFGGGTKVTVL
Take B2: the Trimeric HA Binding: RLU in [12] came to 21400 RLU; in assay [13] it was 4600 RLU; in [14] it was 17700 RLU; in assay [15], 376 RLU; in [16], 27700 RLU; in assay [17], 327 RLU. The Trimeric HA Binding: RLU in assay [18] worked out at 25900 RLU; in assay [19], 21600 RLU; in assay [20], 12400 RLU; in assay [21], 21000 RLU; in assay [22], 23200 RLU; in [23], 8580 RLU. Also, the Trimeric HA Binding: RLU in assay [24] was 16300 RLU; in assay [25] it was 1690 RLU; in assay [26] it was 314 RLU; in [27] it was 7520 RLU.

B3: TCN-523 (5248_A17) (antibody, V domains shown)
VH: QVQLVQSGAEVKKPGSSVKVSCKASGGSFSNYAFSWVRQAPGQGLEWMGGTIPLLGTTNYAQKFQGRVTISADQFTSTAYMELGSLRSEDTAVYYCTRRKMTTAFDSWGQGTLVTVSS
VL: QPVLTQPPSASASLGASVTLTCTLSSAYSNYKVDWYQQRPGKGPRFVMRVGTGGIVGSKGDGIPDRFSVLGSGLNRYLTIKNIQEEDESDYHCGADHGSGSNFVSPYVFGGGTKLTVL
In the case of B3, the Trimeric HA Binding: RLU in [28] is 24200 RLU; in assay [29], 51 RLU; in assay [1], 80 RLU; in assay [2], 17700 RLU; in assay [3] it was 25500 RLU; in assay [4], 191 RLU. Moreover, the Trimeric HA Binding: RLU was 6780 RLU in assay [5]; 18500 RLU in [6]; 10800 RLU in [7]; 26400 RLU in [8]; 28 RLU in [9]; 60 RLU in assay [10].

B4: TCN-530 (5248_H10a) (antibody, V domains shown)
VH: QVQLVQSGAEVRKPGSSVKVSCKASGGPFMSYAIGWVRQAPGQGLEWMGGINPVFGRPHYAQKFQGRVTIATDDSTKTSYMELSSLTSEDTGMYYCASRYSRSSPGTFESWGQGTLVTVSS
VL: EIVMTQFPATLSVSPGERVTLSCRASQSVSNNLAWYQQKPGQPPRLLIYDASTRATGVPAKFSGTGSGTEFTLSISSLQSEDFAVYYCQQYHNWPPSYSFGLGTKLEIK
For B4, the Trimeric HA Binding: RLU in assay [28] was 10200 RLU.
